{"source": "paper PMC10175771", "target": "P. falciparum cytochrome c-2 (PF3D7_1311700), recombinant, hemylated, N-terminal His6 tag (P. falciparum) (UniProt Q8I6T6)", "assay": "crystal structure"}
{"substance": "P. falciparum cytochrome c-2 (PF3D7_1311700), recombinant, hemylated, N-terminal His6 tag (from UniProt Q8I6T6 1-159) (natural protein)", "values": [{"measurement": "stoichiometry N", "value": 2}]}
